In the supplement of paper PMC10724198:
± gives the standard deviation of the averaged measurements.

Tested on: Saccharomyces cerevisiae
Test: protein stability index of tFT-peptide fusion (C-terminal peptide) (PSI (0-1 scale)); higher = more stable (slower turnover)
Conditions: genetic background: wild type; temperature: 30 C
Method: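 Multiplexed protein stability (MPS) profiling in S. cerevisiae. Random 12-aa peptides (tFT-X12 library) are fused to the C-terminus of a sfGFP-mCherry tandem fluorescent timer, after mCherry and a GGGS linker. Cells are FACS-sorted into 8 mCherry/sfGFP bins and deep-sequenced. The protein stability index (PSI) is the read-weighted bin average, scaled from 0 (unstable) to 1 (stable). Only peptides with >10 reads are reported; cells were grown at 30 °C in SC-His with glucose.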
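Further: PSI is a weighted mean of sequencing reads over stability bins, variants kept only with over 10 reads, mCherry proximal and sfGFP distal, peptide attached via GGGS linker.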

| Sequence | protein stability index |
| --- | --- |
| PPPPPHPRSPLS | 0.738 ± 0.037 |
| GPSVGWFPSGWS | 0.74212 ± 0.00021 |
| GTHGQAQRVAGQ | 0.7248 ± 0.0061 |
| GVVGGGVQGGMG | 0.624 ± 0.0046 |
| SQTPPPAPSGHH | 0.69 ± 0.099 |
| GGSSWSLGGGCG | 0.713 ± 0.023 |
| AEKTKAEKNITK | 0.752 ± 0.022 |
| PPRSFPGTPLIA | 0.67 ± 0.069 |
| LRVFPVFSWFDR | 0.678 ± 0.15 |
| KTEGQEKRVMSE | 0.734 ± 0.046 |
| IADLGDLTKVTL | 0.693 ± 0.019 |
| PPPPPHHRPPSS | 0.709 ± 0.077 |
| DGCSWRSGLVWL | 0.69506 ± 0.00062 |
| PLPLSPLLLPPR | 0.6836 ± 0.0045 |
| PPSRLSPPPPPS | 0.71 ± 0.016 |
| VTFRTFFVPTFK | 0.662 ± 0.097 |
| PSCRPPLLHPDS | 0.721 ± 0.0094 |
| WTNRVPLYALPT | 0.657 ± 0.0081 |
| HCLLPLTTRRGR | 0.7 ± 0.026 |
| GGRGRRAGGSSG | 0.745 ± 0.016 |
| KNNERIDKRKKI | 0.726 ± 0.063 |
| RAHWGEFGYSLF | 0.716 ± 0.018 |
| ALAPCLPESIGN | 0.676 ± 0.057 |
| KKRVHNRKEETE | 0.691 ± 0.091 |
| SATDARPPMKSP | 0.735 ± 0.069 |

| Sequence | protein stability index |
| --- | --- |
| GVLSLFLLDTSQ | 0.7376 ± 0.0061 |
| RKRPTQAMIFNI | 0.5568 ± 0.0013 |
| FCLGWWVAVCGL | 0.487 ± 0.04 |
| LVGQVKYMIKEQ | 0.684 ± 0.028 |
| HSVVANECHQGQ | 0.766 ± 0.11 |
| DDGQWVGFCGWT | 0.749 ± 0.039 |
| THRNEKQGTVTY | 0.651 ± 0.016 |
| SLRMMKTTNAWT | 0.661 ± 0.0077 |
| SPHRQIRKRFEK | 0.714 ± 0.026 |
| PYSPPAHLLSLL | 0.878 ± 0.061 |
| VRAGLAGGPGRV | 0.684 ± 0.024 |
| LTGSPDSNPNSV | 0.68 ± 0.084 |
| TAYRGCSDRNAG | 0.603 ± 0.042 |
| LVSPPTPPPFPP | 0.702 ± 0.059 |
| RVCFSLGAEFSF | 0.665 ± 0.055 |
| PSPSTAPPRDQG | 0.724 ± 0.016 |
| PIELTQRASVPP | 0.6592 ± 0.0052 |
| RGGGGGRKVSVG | 0.658 ± 0.062 |
| PFFSPLPPSPPP | 0.767 ± 0.11 |
| LAAGGSAGTRVV | 0.656 ± 0.026 |
| LTRRSPSPRTLT | 0.644 ± 0.03 |
| ATGHQMTMYDNR | 0.708 ± 0.069 |
| MSLLCPSPPFPT | 0.695 ± 0.068 |
| PCLPCVDRGMRG | 0.6663 ± 0.00079 |
| PDCQSIIRLTTG | 0.752 ± 0.098 |

| Sequence | protein stability index |
| --- | --- |
| LMWPTSHLPQPQ | 0.734 ± 0.092 |
| LAFPFSPLAPQI | 0.691 ± 0.077 |
| QLILVGYCMLSV | 0.5612 ± 0.0017 |
| VTNGGGMGWYRR | 0.652 ± 0.078 |
| WLREDCLLSRGR | 0.7 ± 0.0016 |
| SRLGVIRGIGLV | 0.67 ± 0.025 |
| PRASPPPLPPSP | 0.717 ± 0.032 |
| PLSPSAVGCPGF | 0.645 ± 0.16 |
| RWWGDEAHRDGA | 0.81 ± 0.049 |
| CIATINKMTRRI | 0.67 ± 0.11 |
| KKKIKKKKEKNT | 0.664 ± 0.032 |
| CKCKLNKKTTKS | 0.701 ± 0.05 |
| HLLLLDLTRPIL | 0.745 ± 0.061 |
| CVGILGAVKSGM | 0.71 ± 0.098 |
| CPRLDVSSGFSW | 0.694 ± 0.025 |
| VLTSSVLPSFFP | 0.627 ± 0.018 |
| SQPIRAMILRVP | 0.53 ± 0.00096 |
| RCLRALGLFARS | 0.719 ± 0.008 |
| KVLGRPVGMAYI | 0.666 ± 0.034 |
| LPGTTFTPPVAS | 0.662 ± 0.008 |
| PLPPPPPPPSSP | 0.726 ± 0.011 |
| TTVSSSLSPVPD | 0.7181 ± 0.0054 |
| TPPPPLSCPPPS | 0.487 ± 0.035 |
| LYGASRCLVARS | 0.664 ± 0.0093 |
| PPPSVPPSLTPP | 0.693 ± 0.03 |

| Sequence | protein stability index |
| --- | --- |
| KKKKKEKKQERK | 0.69526 ± 0.00024 |
| FLPPSVYAHPFP | 0.743 ± 0.083 |
| RFPRFVVPTRTR | 0.852 ± 0.058 |
| VAVGIEGGWWGV | 0.78 ± 0.042 |
| HQRIKLMPEVWS | 0.689 ± 0.056 |
| NKMLCTTEGVAA | 0.644 ± 0.038 |
| GGGRAAIVRGGW | 0.682 ± 0.014 |
| PSLSSPQLLLTL | 0.685 ± 0.01 |
| PFALPPPPPLVP | 0.69 ± 0.0078 |
| PPPSPCHPPSPP | 0.67 ± 0.12 |
| GGGDRRRTARLS | 0.578 ± 0.027 |
| PPSLGPHSTSCD | 0.715 ± 0.071 |
| LQLLPPGLRQLP | 0.679 ± 0.0079 |
| FLIPPPFALPSL | 0.717 ± 0.08 |
| GEGRGRTETEMK | 0.682 ± 0.033 |
| RGCAPDRIPAPV | 0.645 ± 0.023 |
| GAVYHGGMASVR | 0.746 ± 0.054 |
| GKPFAWVAVVGD | 0.729 ± 0.051 |
| GGGCARRRGGRV | 0.6958 ± 0.0049 |
| SPRLPPPLFLPL | 0.638 ± 0.02 |
| ASTTSYNITLEC | 0.679 ± 0.17 |
| LGWRLFNDVRRG | 0.707 ± 0.013 |
| PQPPTPLTPTPP | 0.697 ± 0.089 |
| RRSSLGIYWIYS | 0.61 ± 0.037 |
| PPPPPPPPRRPP | 0.595 ± 0.047 |

| Sequence | protein stability index |
| --- | --- |
| TEHRVGEKEPWH | 0.681 ± 0.018 |
| EDLVREKRKCEK | 0.694 ± 0.043 |
| GKFKKRIRRGIK | 0.695 ± 0.011 |
| SPPLLPPPSLPP | 0.628 ± 0.0056 |
| LKCGGVRCGSAN | 0.648 ± 0.061 |
| FESFHLENRGEK | 0.706 ± 0.04 |
| NMLYRKEGWTKE | 0.655 ± 0.036 |
| PGCSFSYYFFAV | 0.5725 ± 0.0016 |
| CAAIHFLLPTYP | 0.69 ± 0.054 |
| GGWGWGERRSRE | 0.658 ± 0.06 |
| AVRFISRLPPPA | 0.686 ± 0.078 |
| PPAFFPHSRPLL | 0.598 ± 0.038 |
| IGSDFQLFLEGC | 0.668 ± 0.044 |
| PRRPLPTISCPS | 0.618 ± 0.005 |
| VWVVGADEDAVR | 0.698 ± 0.03 |
| PRPRSPSPPLPP | 0.705 ± 0.01 |
| LLSNDNRIKTIR | 0.725 ± 0.047 |
| FGVGGAVGWRLR | 0.677 ± 0.052 |
| RDNKIKEGKKKK | 0.682 ± 0.1 |
| CCYSSLRLMSFL | 0.536 ± 0.014 |
| RVGAVCWSIGLL | 0.68 ± 0.03 |
| PSSRFLFFCSFF | 0.677 ± 0.033 |
| GADGARGVPGAG | 0.662 ± 0.018 |
| SPSLLLSFLSFF | 0.665 ± 0.071 |
| TALFRLRRPRLR | 0.801 ± 0.021 |

| Sequence | protein stability index |
| --- | --- |
| KLQKTKNPKSNT | 0.6624 ± 0.0046 |
| PPHPAPPLQPQT | 0.64 ± 0.14 |
| NFMTEGYFWRGE | 0.767 ± 0.0087 |
| RHFFRYYLDHPS | 0.617 ± 0.035 |
| VLPLRPGRKLSG | 0.664 ± 0.054 |
| YSSLPPAFPNRS | 0.734 ± 0.1 |
| PPPPPTPPPARP | 0.695 ± 0.054 |
| APAPPPVSSASL | 0.665 ± 0.013 |
| SRFILSRLPLLS | 0.595 ± 0.065 |
| DSYELGICCSSS | 0.6678 ± 0.0019 |
| KKKKKKYRKKKK | 0.668 ± 0.0087 |
| FSRAPHFSGRLC | 0.502 ± 0.0087 |
| GGGEGRGGVEYG | 0.64 ± 0.037 |
| LTDKHNETNINQ | 0.6501 ± 0.0042 |
| PPLHPPLPPPPS | 0.71 ± 0.06 |
| PPLTSSVCFSLI | 0.665 ± 0.098 |
| WVGKCLCRGLCD | 0.668 ± 0.0096 |
| SVRLVGHGARDR | 0.699 ± 0.18 |
| CGWIQYSVSHDL | 0.712 ± 0.059 |
| IYPRLGPHSLVC | 0.589 ± 0.016 |
| TPPPTPSLPTRP | 0.677 ± 0.057 |
